From patent US10441663B2, “Methods for treating cancer” (Bicycle Therapeutics Limited, priority 2016, dated 2019)
*1 amine or outer side, *2 acyl side, *3 side chain or, on linkers, in order; H or OH if unused. Where a SMILES comes first, the peptide text is derived from it. Bridges are numbered along the chain shown (N, C = ends). [ ]: non-standard residue; d: D form. The star is where a group is joined. X1 = COc1cc2cc(c1Cl)N(C)C(=O)C[C@H](OC(=O)[C@H](C)N(C)C(=O)CCSSC(C)CCC(=O)*)[C@]1(C)O[C@H]1[C@H](C)[C@@H]1C[C@@](O)(NC(=O)O1)[C@H](OC)/C=C/C=C(\C)C2; 1Nal = N[C@@H](Cc1cccc2ccccc12)C(=O)O; TBMB = c1c(C[*:1])cc(C[*:3])cc1C[*:2]; Tle = CC(C)(C)[C@H](N)C(=O)O; βAla = NCCC(=O)O; Sar = CNCC(=O)O

Tested on: EBC-1 xenograft
Assay: Efficacy of BT1718 in EBC-1 xenograft model (Example 1)
Assay type: in vivo, Mus Musculus
Set-up: key to Best response at 10 mg/kg: CR complete response; PR partial response
Details: for Tumor Size (mm^3): Mean ± SEM
Description: The objective of this study was to evaluate the anti-tumor efficacy of BT1718 in EBC-1 xenograft model in female BALB/c nude mice.
The EBC-1 tumor cells were maintained in vitro as a monolayer culture in EMEM medium supplemented with 10% heat inactivated fetal bovine serum at 37° C. in an atmosphere of 5% CO2 in air. The tumor cells will be routinely subcultured twice weekly by trypsin-EDTA treatment. The cells growing in an exponential growth phase will be harvested and counted for tumor inoculation.
Each mouse was inoculated subcutaneously at the right flank with EBC-1 tumor cells (10×10^6) in 0.2 ml of PBS for tumor development. The animals were randomized and treatment was started when the average tumor volume reaches approximately 165 mm^3 for the efficacy study.
All the procedures related to animal handling, care and the treatment in the study were performed according to the guidelines of the Association for Assessment and Accreditation of Laboratory Animal Care (AAALAC). At the time of routine monitoring, the animals were daily checked for any effects of tumor growth and treatments on normal behavior such as mobility, food and water consumption (by looking only), body weight gain/loss (body weights were measured every day), eye/hair matting and any other abnormal effect as stated in the protocol. Death and observed clinical signs were recorded on the basis of the numbers of animals within each subset.
The major endpoint was to see if the tumor growth could be delayed or mice could be cured. Tumor size was measured three times weekly in two dimensions using a caliper, and the volume was expressed in mm^3 using the formula: V=0.5 a×b^2 where a and b are the long and short diameters of the tumor, respectively. The tumor size was then used for calculations of T/C value. The T/C value (in percent) is an indication of antitumor effectiveness; T and C are the mean volumes of the treated and control groups, respectively, on a given day.
TGI was calculated for each group using the formula: TGI (%)=[1−(Ti−T0)/(Vi−V0)]×100; Ti is the average tumor volume of a treatment group on a given day, T0 is the average tumor volume of the treatment group on the day of treatment start, Vi is the average tumor volume of the vehicle control group on the same day with Ti, and V0 is the average tumor volume of the vehicle group on the day of treatment start.
Summary statistics, including mean and the standard error of the mean (SEM), are provided for the tumor volume of each group at each time point.
Statistical analysis of difference in tumor volume among the groups was conducted on the data obtained at the best therapeutic time point after the final dose.
A one-way ANOVA was performed to compare tumor volume among groups, and when a significant F-statistics (a ratio of treatment variance to the error variance) was obtained, comparisons between groups were carried out with Games-Howell test. All data were analyzed using Prism. P<0.05 was considered to be statistically significant.

For `COc1cc2cc(c1Cl)N(C)C(=O)C[C@H](OC(=O)[C@H](C)N(C)C(=O)CCSSC(C)CCC(=O)NCCC(=O)N(C)CC(=O)N(C)CC(=O)N(C)CC(=O)N(C)CC(=O)N(C)CC(=O)N(C)CC(=O)N(C)CC(=O)N(C)CC(=O)N(C)CC(=O)N(C)CC(=O)N[C@@H](C)C(=O)N[C@H]1CSCc3cc4cc(c3)CSC[C@H](NC(=O)[C@@H](C)NC(=O)[C@H](Cc3cccc5ccccc35)NC(=O)[C@H](CCC(=O)O)NC(=O)[C@H](CC(N)=O)NC(=O)[C@@H](C)NC1=O)C(=O)N[C@@H](CCC(=O)O)C(=O)N[C@@H](CC(=O)O)C(=O)N[C@@H](Cc1ccccc1)C(=O)N[C@@H](Cc1ccc(O)cc1)C(=O)N[C@@H](CC(=O)O)C(=O)N[C@@H](C(C)(C)C)C(=O)N[C@H](C(N)=O)CSC4)[C@]1(C)O[C@H]1[C@H](C)[C@@H]1C[C@@](O)(NC(=O)O1)[C@H](OC)/C=C/C=C(\C)C2` (some centres unmarked) [BT1718] ({X1-βAla}-[Sar][Sar][Sar][Sar][Sar][Sar][Sar][Sar][Sar][Sar]AC[dA]NE[1Nal][dA]CEDFYD[Tle]C-NH2; linker 12-18-25 via TBMB (inferred)), the Tumor Volume (4.5 mpk biw, day 21) was 526 ± 95 mm^3, the “Body Weight” value (9 mpk qw, day 0) was 24.0 ± 0.4 g and the “Body Weight (% Change)” value (9 mpk qw, day 0) was 0.0%. The Tumor Volume (9 mpk qw, day 0) was 163 ± 19 mm^3, the “Body Weight” value (9 mpk qw, day 2) was 23.2 ± 0.6 g and the “Body Weight (% Change)” value (9 mpk qw, day 2) was −3.4 ± 0.9%. The Tumor Volume (9 mpk qw, day 2) was 182 ± 25 mm^3, the “Body Weight” value (9 mpk qw, day 4) was 23.8 ± 0.5 g and the “Body Weight (% Change)” value (9 mpk qw, day 4) was −0.7 ± 1.8%. The Tumor Volume (9 mpk qw, day 4) was 200 ± 28 mm^3, the “Body Weight” value (9 mpk qw, day 7) was 24.7 ± 0.2 g and the “Body Weight (% Change)” value (9 mpk qw, day 7) was 2.8 ± 0.6%. For the same compound, the Tumor Volume (9 mpk qw, day 7) was 202 ± 64 mm^3, the “Body Weight” value (9 mpk qw, day 9) was 23.8 ± 0.5 g and the “Body Weight (% Change)” value (9 mpk qw, day 9) was −1.1 ± 0.7%. For the same compound, the Tumor Volume (9 mpk qw, day 9) was 187 ± 70 mm^3, the “Body Weight” value (9 mpk qw, day 11) was 24.7 ± 0.4 g and the “Body Weight (% Change)” value (9 mpk qw, day 11) was 2.8 ± 0.9%. The Tumor Volume (9 mpk qw, day 11) was 164 ± 61 mm^3, the “Body Weight” value (9 mpk qw, day 14) was 24.9 ± 0.4 g and the “Body Weight (% Change)” value (9 mpk qw, day 14) was 3.7 ± 0.8%. For the same compound, the “T/C (%)” value (9 mpk qw, day 14) was 12%, the “TGI (%)” value (9 mpk qw, day 14) was 101% and the Tumor Volume (9 mpk qw, day 14) was 154 ± 72 mm^3. For the same compound, the “Tumor Size (mm^3)” value (9 mpk qw, day 14) was 154 ± 72 mm^3, the “Body Weight” value (9 mpk qw, day 16) was 24.6 ± 0.2 g and the “Body Weight (% Change)” value (9 mpk qw, day 16) was 2.3 ± 0.6%. The Tumor Volume (9 mpk qw, day 16) was 186 ± 83 mm^3, the “Body Weight” value (9 mpk qw, day 18) was 24.8 ± 0.2 g and the “Body Weight (% Change)” value (9 mpk qw, day 18) was 3.2 ± 0.8%. For the same compound, the Tumor Volume (9 mpk qw, day 18) was 245 ± 119 mm^3, the “Body Weight” value (9 mpk qw, day 21) was 24.8 ± 0.2 g and the “Body Weight (% Change)” value (9 mpk qw, day 21) was 3.1 ± 1.0%. For the same compound, the Tumor Volume (9 mpk qw, day 21) was 320 ± 153 mm^3, the “Body Weight” value (10 mpk tiw, day 0) was 24.2 ± 0.4 g and the “Body Weight (% Change)” value (10 mpk tiw, day 0) was 0.0%. For the same compound, the Tumor Volume (10 mpk tiw, day 0) was 167 ± 11 mm^3, the “Body Weight” value (10 mpk tiw, day 2) was 23.2 ± 0.6 g and the “Body Weight (% Change)” value (10 mpk tiw, day 2) was −4.0 ± 1.3%. The Tumor Volume (10 mpk tiw, day 2) was 216 ± 21 mm^3, the “Body Weight” value (10 mpk tiw, day 4) was 23.7 ± 0.5 g and the “Body Weight (% Change)” value (10 mpk tiw, day 4) was −2.1 ± 0.9%. For the same compound, the Tumor Volume (10 mpk tiw, day 4) was 205 ± 24 mm^3, the “Body Weight” value (10 mpk tiw, day 7) was 22.7 ± 0.6 g and the “Body Weight (% Change)” value (10 mpk tiw, day 7) was −6.2 ± 0.8%. The Tumor Volume (10 mpk tiw, day 7) was 114 ± 10 mm^3, the “Body Weight” value (10 mpk tiw, day 9) was 23.1 ± 0.4 g and the “Body Weight (% Change)” value (10 mpk tiw, day 9) was −4.4 ± 0.3%. For the same compound, the Tumor Volume (10 mpk tiw, day 9) was 45 ± 4 mm^3, the “Body Weight” value (10 mpk tiw, day 11) was 22.9 ± 0.6 g and the “Body Weight (% Change)” value (10 mpk tiw, day 11) was −5.2 ± 1.1%. The Tumor Volume (10 mpk tiw, day 11) was 16 ± 3 mm^3, the “Body Weight” value (10 mpk tiw, day 14) was 23.8 ± 0.5 g and the “Body Weight (% Change)” value (10 mpk tiw, day 14) was −1.6%. For the same compound, the “T/C (%)” value (10 mpk tiw, day 14) was 0%, the “TGI (%)” value (10 mpk tiw, day 14) was 115% and the Tumor Volume (10 mpk tiw, day 14) was 0 ± 0 mm^3. For the same compound, the “Tumor Size (mm^3)” value (10 mpk tiw, day 14) was 0 ± 0 mm^3, the “Body Weight” value (15 mpk biw, day 0) was 23.7 ± 0.3 g and the “Body Weight (% Change)” value (15 mpk biw, day 0) was 0.0%. The Tumor Volume (15 mpk biw, day 0) was 161 ± 12 mm^3, the “Body Weight” value (15 mpk biw, day 2) was 22.7 ± 0.4 g and the “Body Weight (% Change)” value (15 mpk biw, day 2) was −4.2 ± 0.6%. For the same compound, the Tumor Volume (15 mpk biw, day 2) was 173 ± 11 mm^3, the “Body Weight” value (15 mpk biw, day 4) was 22.6 ± 0.3 g and the “Body Weight (% Change)” value (15 mpk biw, day 4) was −4.5 ± 0.3%. For the same compound, the Tumor Volume (15 mpk biw, day 4) was 136 ± 10 mm^3, the “Body Weight” value (15 mpk biw, day 7) was 22.8 ± 0.4 g and the “Body Weight (% Change)” value (15 mpk biw, day 7) was −3.7 ± 2.5%. The Tumor Volume (15 mpk biw, day 7) was 79 ± 1 mm^3, the “Body Weight” value (15 mpk biw, day 9) was 22.7 ± 0.2 g and the “Body Weight (% Change)” value (15 mpk biw, day 9) was −4.3 ± 1.7%. The Tumor Volume (15 mpk biw, day 9) was 36 ± 2 mm^3, the “Body Weight” value (15 mpk biw, day 11) was 23.4 ± 0.3 g and the “Body Weight (% Change)” value (15 mpk biw, day 11) was −1.2 ± 0.3%. For the same compound, the Tumor Volume (15 mpk biw, day 11) was 12 ± 0 mm^3, the “Body Weight” value (15 mpk biw, day 14) was 23.7 ± 0.5 g and the “Body Weight (% Change)” value (15 mpk biw, day 14) was 0.2 ± 1.4%. The “T/C (%)” value (15 mpk biw, day 14) was 0%, the “TGI (%)” value (15 mpk biw, day 14) was 115% and the Tumor Volume (15 mpk biw, day 14) was 0 ± 0 mm^3. The “Tumor Size (mm^3)” value (15 mpk biw, day 14) was 0 ± 0 mm^3, the “Body Weight” value (30 mpk qw, day 0) was 24.6 ± 0.6 g and the “Body Weight (% Change)” value (30 mpk qw, day 0) was 0.0%. For the same compound, the Tumor Volume (30 mpk qw, day 0) was 166 ± 10 mm^3, the “Body Weight” value (30 mpk qw, day 2) was 20.9 ± 0.3 g and the “Body Weight (% Change)” value (30 mpk qw, day 2) was −14.9 ± 2.2%. For the same compound, the Tumor Volume (30 mpk qw, day 2) was 166 ± 22 mm^3, the “Body Weight” value (30 mpk qw, day 4) was 21.9 ± 1.0 g and the “Body Weight (% Change)” value (30 mpk qw, day 4) was −10.8 ± 4.3%. For the same compound, the Tumor Volume (30 mpk qw, day 4) was 128 ± 6 mm^3, the “Body Weight” value (30 mpk qw, day 7) was 23.1 ± 1.0 g and the “Body Weight (% Change)” value (30 mpk qw, day 7) was −6.2 ± 3.5%. The Tumor Volume (30 mpk qw, day 7) was 89 ± 4 mm^3, the “Body Weight” value (30 mpk qw, day 9) was 20.8 ± 1.0 g and the “Body Weight (% Change)” value (30 mpk qw, day 9) was −15.5 ± 3.4%. For the same compound, the Tumor Volume (30 mpk qw, day 9) was 47 ± 3 mm^3, the “Body Weight” value (30 mpk qw, day 11) was 22.1 ± 0.9 g and the “Body Weight (% Change)” value (30 mpk qw, day 11) was −10.3 ± 3.3%. The Tumor Volume (30 mpk qw, day 11) was 18 ± 2 mm^3, the “Body Weight” value (30 mpk qw, day 14) was 24.0 ± 1.0 g and the “Body Weight (% Change)” value (30 mpk qw, day 14) was −2.4 ± 3.2%. For the same compound, the “T/C (%)” value (30 mpk qw, day 14) was 0%, the “TGI (%)” value (30 mpk qw, day 14) was 115% and the Tumor Volume (30 mpk qw, day 14) was 0 ± 0 mm^3. For the same compound, the “Tumor Size (mm^3)” value (30 mpk qw, day 14) was 0 ± 0 mm^3, the “Best response at 10 mg/kg” value (EBC-1, 10 mg/kg) was “CR” and the “Minimally Effective Dose IV BIW” value (EBC-1, dose leading to tumor-stasis) was less than 10 mg/kg. The body weight effect (other groups (all except 30 mg/kg qw)) was “maintained their bodyweight well” and the treatment effect (same total dose, schedules from daily to a single weekly dose) was “Effective treatment”.
